The record followed here is article PMC314469, “Protein Interaction Networks by Proteome Peptide Scanning” (PLoS Biology, 2004).

Common to all, as to assay: SPOT array
The target of assay [1] is T1, Rvs167 SH3 (RV167_YEAST), P39743.
T1 chain: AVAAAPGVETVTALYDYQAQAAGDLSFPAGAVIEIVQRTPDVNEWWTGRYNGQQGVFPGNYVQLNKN

Assay [2] has as its target Sho1 SH3 (SHO1_YEAST), P40073.
Assay [3] addresses T2, Yhr016c SH3 (YSC84_YEAST), P32793.
T2 chain: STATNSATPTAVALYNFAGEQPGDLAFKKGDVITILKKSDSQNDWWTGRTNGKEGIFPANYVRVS

The target of assay [4] is T3, Boi1 SH3 (BOI1_YEAST), P38041.
T3 chain: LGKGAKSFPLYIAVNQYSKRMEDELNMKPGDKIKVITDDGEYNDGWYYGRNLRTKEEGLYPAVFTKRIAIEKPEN

Assay [5] addresses T4, Myo5 SH3 (MYO5_YEAST), Q04439.
T4 chain: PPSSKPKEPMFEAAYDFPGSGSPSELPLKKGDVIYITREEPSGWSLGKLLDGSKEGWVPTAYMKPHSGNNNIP

For assay [6], the target named is T5, Boi2 SH3 (BOI2_YEAST), P39969.
T5 chain: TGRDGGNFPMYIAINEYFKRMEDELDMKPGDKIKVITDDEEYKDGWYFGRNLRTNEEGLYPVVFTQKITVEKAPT

The target of assay [7] is T6, Yfr024 SH3 (LSB3_YEAST), P43603.
T6 chain: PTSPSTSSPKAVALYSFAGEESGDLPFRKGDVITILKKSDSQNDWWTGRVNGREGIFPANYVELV

Sequence of Sho1 SH3 (SHO1_YEAST), P40073 (P40073 295-366): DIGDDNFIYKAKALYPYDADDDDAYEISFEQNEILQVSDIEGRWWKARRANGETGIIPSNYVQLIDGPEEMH

B1: YLR430W 1004-1017 (peptide)
chain: AKLHRTKPVKPLSK
Turning to B1, the normalised SPOT signal, Boehringer light units (BLU); mean over the file's lines of this peptide in assay [1] worked out at 34.5; in assay [2] it was 109; in assay [3] it was 42.3; in assay [4] it was 382; in assay [5] it was 502; in assay [6], 4.6. This molecule had a normalised SPOT signal, Boehringer light units (BLU); mean over the file's lines of this peptide in assay [7] of 162.

B2: YDL195W 766-779 (peptide)
chain: AKTNKNVPVLPTPG
For B2, the normalised SPOT signal, Boehringer light units (BLU); mean over the file's lines of this peptide in assay [1] turned out to be 136; in assay [2], 91.3; in assay [3], 30.3; in assay [4], 1420; in assay [5] it was 130; in assay [6], 70.7. For the same molecule, the normalised SPOT signal, Boehringer light units (BLU); mean over the file's lines of this peptide in assay [7] was found to be 97.7.

B3: YGR061C 138-151 (peptide)
chain: ALLIKTVPGFPLLE
For B3, the normalised SPOT signal, Boehringer light units (BLU); mean over the file's lines of this peptide in assay [1] worked out at 11.8; in assay [2] it was 22.1; in assay [3] it was 7.6; in assay [4], 78.5; in assay [5], 144; in assay [6], 48. The same molecule came in with a normalised SPOT signal, Boehringer light units (BLU); mean over the file's lines of this peptide in assay [7] of 39.7.

B4: YNL093W 69-82 (peptide)
chain: AGQERFAPLAPMYY
Take B4: the normalised SPOT signal, Boehringer light units (BLU); mean over the file's lines of this peptide in assay [1] is 102; in assay [2], 23.3; in assay [3], 15.9; in assay [4] it was 33.8; in assay [5] it was 101; in assay [6] it was 30.4. For the same molecule, the normalised SPOT signal, Boehringer light units (BLU); mean over the file's lines of this peptide in assay [7] is 98.8.

B5: YDL142C 12-25 (peptide)
chain: ALLRRTIPKRPFYH
Consider B5, for which the normalised SPOT signal, Boehringer light units (BLU); mean over the file's lines of this peptide in assay [1] worked out at 1850; in assay [2], 34.4; in assay [3] it was 972; in assay [4], 4780; in assay [5], 914; in assay [6], 253. Besides, the normalised SPOT signal, Boehringer light units (BLU); mean over the file's lines of this peptide in assay [7] amounted to 7070.

B6: YDL245C 273-286 (peptide)
chain: AKINKVSPEDPWVL
With B6, the normalised SPOT signal, Boehringer light units (BLU); mean over the file's lines of this peptide amounted to 39 in assay [1]; 23.6 in assay [2]; 12.2 in assay [3]; 117 in assay [4]; 121 in assay [5]; 12.9 in assay [6]. This molecule returned a normalised SPOT signal, Boehringer light units (BLU); mean over the file's lines of this peptide in assay [7] of 14.9.

B7: YLR081W 283-296 (peptide)
chain: AKSNKVSPEDPAVQ
For B7, the normalised SPOT signal, Boehringer light units (BLU); mean over the file's lines of this peptide in assay [1] was determined as 159; in assay [2], 44.1; in assay [3] it was 12.5; in assay [4] it was 571; in assay [5] it was 371; in assay [6], 24.3. Besides, in assay [7], the normalised SPOT signal, Boehringer light units (BLU); mean over the file's lines of this peptide worked out at 142.

B8: YGL063W 287-300 (peptide)
chain: AGPRKYIPRAPAQG
For the molecule B8, the normalised SPOT signal, Boehringer light units (BLU); mean over the file's lines of this peptide turned out to be 94.4 in assay [1]; 63 in assay [2]; 45.1 in assay [3]; 1440 in assay [4]; 195 in assay [5]; 39.1 in assay [6]. The molecule further showed a normalised SPOT signal, Boehringer light units (BLU); mean over the file's lines of this peptide in assay [7] of 233.

B9: YHR147C 183-196 (peptide)
chain: AKLRKFHPPEPYKG
Take B9: the normalised SPOT signal, Boehringer light units (BLU); mean over the file's lines of this peptide in assay [1] was 48.5; in assay [2], 133; in assay [3], 32.7; in assay [4], 274; in assay [5], 119; in assay [6], 34.8. Also, the normalised SPOT signal, Boehringer light units (BLU); mean over the file's lines of this peptide in assay [7] worked out at 128.

B10: YHR094C 277-290 (peptide)
chain: AKVNKSPPDHPYIQ
On to B10, for which the normalised SPOT signal, Boehringer light units (BLU); mean over the file's lines of this peptide came to 53 in assay [1]; 32.9 in assay [2]; 18.6 in assay [3]; 426 in assay [4]; 164 in assay [5]; 20.2 in assay [6]. The same molecule displayed a normalised SPOT signal, Boehringer light units (BLU); mean over the file's lines of this peptide in assay [7] of 39.4.

B11: YOR219C 612-625 (peptide)
chain: AISKKLGPDTPIKV
As for B11, the normalised SPOT signal, Boehringer light units (BLU); mean over the file's lines of this peptide in assay [1] was 14.9; in assay [2], 18.4; in assay [3], 7; in assay [4] it was 466; in assay [5], 176; in assay [6], 3.3. For the same molecule, in assay [7], the normalised SPOT signal, Boehringer light units (BLU); mean over the file's lines of this peptide was determined as 48.8.

B12: YLR073C 11-24 (peptide)
chain: AKDYRFNPAIPLRI
B12: the normalised SPOT signal, Boehringer light units (BLU); mean over the file's lines of this peptide was 534 in assay [1]; 208 in assay [2]; 559 in assay [3]; 1420 in assay [4]; 304 in assay [5]; 30.5 in assay [6]. For the same molecule, the normalised SPOT signal, Boehringer light units (BLU); mean over the file's lines of this peptide in assay [7] was 1400.

B13: YMR129W 520-533 (peptide)
chain: ALEERFDPKSPTKR
On to B13, for which the normalised SPOT signal, Boehringer light units (BLU); mean over the file's lines of this peptide stood at 56.3 in assay [1]; 33.3 in assay [2]; 63.6 in assay [3]; 948 in assay [4]; 108 in assay [5]; 13.4 in assay [6]. For the same molecule, the normalised SPOT signal, Boehringer light units (BLU); mean over the file's lines of this peptide in assay [7] turned out to be 4.1.

B14: YJR158W 273-286 (peptide)
chain: AKIDKVSPEDPWVL
Turning to B14, the normalised SPOT signal, Boehringer light units (BLU); mean over the file's lines of this peptide was found to be 16 in assay [1]; 25.7 in assay [2]; 13.1 in assay [3]; 54.6 in assay [4]; 248 in assay [5]; 15.6 in assay [6]. In assay [7], this molecule returned a normalised SPOT signal, Boehringer light units (BLU); mean over the file's lines of this peptide of 33.6.
